System: ADAR1 KO FLAG-ZBP1 MEFs
Experiment: Cytokine-induced ZBP1-dependent cell death in ADAR1-deficient MEFs
Assay type: cell-based, murine
Conditions: cytokines 100 ng/mL, viability at 48 hours
Source text: Immortalized Zbp1^−/− stably reconstituted with FLAG-ZBP1 MEFs were transiently transfected with TrueGuide Synthetic sgRNA against mouse Adar1 (ThermoFisher Scientific, CRISPR162007 SGM) and TrueCut Cas9 Protein (ThermoFisher Scientific, A36499) by Lipofectamine CRISPRMAX Cas9 Transfection Reagent (ThermoFisher Scientific, CMAX00008). After two days, cells were harvest and examined ADAR1 protein level by western blot.

In the case of TNFα, the “ZBP1-dependent cell death in ADAR1-deficient MEFs” value (“ZBP1-dependent cell death” for short) is reported as “not”.

B1: IL-1α: inflammatory cytokine of the tested panel (protein, UniProt P01583 113-271, looked up)
Interleukin-1 alpha: SAPFSFLSNVKYNFMRIIKYEFILNDALNQSIIRANDQYLTAAALHNLDEAVKFDMGAYKSSKDDAKITVILRISKTQLYVTAQDEDQPVLLKEMPEIPKTITGSETNLLFFWETHGTKNYFTSVAHPNLFIATKQDYWVCLAGGPPSITDFQILENQA
With B1 the “ZBP1-dependent cell death” value was “not”.

B2: TRAIL: inflammatory cytokine of the tested panel (protein, UniProt P50591 1-281, looked up)
Tumor necrosis factor ligand …: MAMMEVQGGPSLGQTCVLIVIFTVLLQSLCVAVTYVYFTNELKQMQDKYSKSGIACFLKEDDSYWDPNDEESMNSPCWQVKWQLRQLVRKMILRTSEETISTVQEKQQNISPLVRERGPQRVAAHITGTRGRSNTLSSPNSKNEKALGRKINSWESSRSGHSFLSNLHLRNGELVIHEKGFYYIYSQTYFRFQEEIKENTKNDKQMVQYIYKYTSYPDPILLMKSARNSCWSKDAEYGLYSIYQGGIFELKENDRIFVSVTNEHLIDMDHEASFFGAFLVG
With B2 the “ZBP1-dependent cell death” value was “not”.

B3: IFNγ: inflammatory cytokine of the tested panel (protein, UniProt P01579 24-161, looked up)
Interferon gamma: QDPYVKEAENLKKYFNAGHSDVADNGTLFLGILKNWKEESDRKIMQSQIVSFYFKLFKNFKDDQSIQKSVETIKEDMNVKFFNSNKKKRDDFEKLTNYSVTDLNVQRKAIHELIQVMAELSPAAKTGKRKRSQMLFRG
With B3 the “ZBP1-dependent cell death” value was “induced ZBP1-dependent cell death”.
